The series can be described thus: yeast display, Sf9 membrane polyspecificity reagent, FACS + sequencing; frameworks hold sequencing errors. The essentials: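 Polyreactivity labels are assigned by the sorting gate from which each nanobody was recovered. The gates were low and high (top ~1%), set on anti-HA fluorescence for expression and streptavidin fluorescence for reagent binding. Before sorting, galactose-induced (36–48 hours) yeast display cells were stained for 1 hour at 4 °C with 10% biotinylated, detergent-solubilized Sf9 membrane reagent.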
Consider “QVQLVESGGGLVQAGGSLRLSCAASGFTFRYNAMGWYRKPPGKERELVAAITSGGNTNYADSVKGRFTISRDNAKNTVYLQMNSLKPEDTAVYYCNTAWRDYVARLGGVGYDYWGQGTQVTVSS”, for which the “polyreactivity (PSR sort gate)” value is “high polyreactivity”. For the sequence “QVQLVESGGGLVQAGGSLRLSCAASGFTFRYNAMGWYRQAPGKERELVAAISRGTITNYADSVKGRFTISRDNAKNTVYLQMNSLKPEDTAVYYCAARYPGHFRFYYWGQGTQVTVSS”, the “polyreactivity (PSR sort gate)” value is “high polyreactivity”. For “QVQLVESGGGLVQAGGSLRLSCAASGFTFRYYAMGCYRPAPGKERELVAAISSRGGTTYYADSVKGRFTISRDNAKNTVYLQMNSLKPEDTAVYYCAATYAYGRYYGYVYLGDYWGQGTQVTVSS”, the “polyreactivity (PSR sort gate)” value is “high polyreactivity”.

Consider “QVQLVESGGGLVQAGGSLRLSCAASGFTFRYYAMGWFRQAPGKESELVAAITWSGGGTYYADSVKGRFTISRYNAKNTVYLQMNSLKPEDTAVYYCNVYKSHRHQAEYNYWGQGTKVTVSS”, for which the “polyreactivity (PSR sort gate)” value is on record as “high polyreactivity”. The same measure for “QVQLVESGGGLVQAGGSLRLSCAASGFTFRYYAMGWYRPAPGKERELVAAISSRGGSTYYADSVKGRFTISRDNAKNTVYLQINSLKPEDTAVYYCAVVRWRHYIFATYDYWGQGTQVTVSS”: “high polyreactivity”; for “QVQLVESGGGLVQAGGSLRLSCAASGFTFRYYAMGWYRQAPGKEREFVAAIRWRGATTYYADSVKGRFTISRDNAKNTVLLQMNSLKPEDTAVYYCAARYVYNSDRVSERDYWGQGTQVTVSS”: “high polyreactivity”; for “QVQLVESGGGLVQAGGSLRLSCAASGFTFRYYAMGWYRQAPGKERELVAAIRRSGGSTYYADSVKGRFTISRDNAKNTVYLQMNSLKPEDTAVYYCAAVGPTYWRGYPSGYDYWGQGTQVTVSS”: “high polyreactivity”. In the case of “QVQLVESGGGLVQAGGSLRLSCAASGFTFRYYAMGWYRQAPGKERELVASITSSGSTNYADSVKGRFTISRDNAKNTVYLQMNSLKPEDTAVYYCAKGWGSDPFRKYGDYWGQGTQVTVSS” it was “high polyreactivity”; in that of “QVQLVESGGGLVQAGGSLRLSCAASGFTFRYYPMGWYRQAPGKERELVAAISWDRDSTYYADSVKGRFTISRDHAKHTVYFQMNSLKPEDTAVYYCAPEYRSWGRYRYRFNYWGQGTQVTVSS”, “high polyreactivity”. In the case of “QVQLVESGGGLVQAGGSLRLSCAASGFTFRYYTMGWYRQAPGKERELVAAINRSGSTNYADSVKGRFTISRDNAKNTVYLQMNSLKPEDTAVYYCAAAYYGSHGRYDYWGQGTQVTVSS”, the “polyreactivity (PSR sort gate)” value is listed as “high polyreactivity”.

Take “QVQLVESGGGLVQAGGSLRLSCAASGFTFRYYTMGWYRQAPGKETELVAAINTSGAGTYYADSVKGRFTISRDNAKNTVYLQMNSLKPEDTAVYYCAATWYGLDYNYWGQGTQVTVSS”: the “polyreactivity (PSR sort gate)” value was “high polyreactivity”. Regarding “QVQLVESGGGLVQAGGSLRLSCAASGFTFRYYTMVWYRQAPGKERELVAAITSSGGNTYYADSVKGRFTISRDNAKNTVYLQMNSLKPEDTAVYYCAADAYPQYNGWSWMDYWGQGTQVTVSS”, the “polyreactivity (PSR sort gate)” value is listed as “low polyreactivity”. The same measure for “QVQLVESGGGLVQAGGSLRLSCAASGFTFRYYVMGWYRQAPGKERELVAAISTRGGRTYYADSVKGRFTISRDNAKNTVYLQMNSLKPEDTAVYYCAKDAHHSYTWGYGYWGQGTQVTVSS”: “high polyreactivity”; for “QVQLVESGGGLVQAGGSLRLSCAASGFTFSAYAMGWYRQAPGKERELVAAISTRGGSTRYADSVKGRFTISRDNAKNTVYLQMNSLKPADTAVYSCAADTRSFYRYDYWGQGTQVTVSS”: “high polyreactivity”; for “QVQLVESGGGLVQAGGSLRLSCAASGFTFSAYTMGWYRQAPGKERELVAAINWSGANTYYADSVKGRFTISRDNAKNTVYLQMNSLKPEDTAVYYCNAEDDYTYDRSFGGYKYDYWGQGTQVTVSS”: “low polyreactivity”. In the case of “QVQLVESGGGLVQAGGSLRLSCAASGFTFSDNAMVWYRQAPGKERELVAAISEGSGITYDADSVKGRFTISRDNAKNTVNLQMNSLKPEDNAVYYCAADWLSKYDYWGQGTQVTVSS” it was “low polyreactivity”; in that of “QVQLVESGGGLVQAGGSLRLSCAASGFTFSFYAMGWYRQAPGKERELVAAITNGGSTYYADSVKGRFTISRDNAKNTVYLQMNSLKPEDTAVYYCAAEWDYPWWRIVAVYGYEYWGQGTQVTVSS”, “low polyreactivity”; in that of “QVQLVESGGGLVQAGGSLRLSCAASGFTFSFYARGWYIQAPGKERELVAAIDRSGGSTYYADSVKGRFTISRDNAKNTVYLQMNSLKPEDTAVYYCAATVFYGYYYWGQGTQVTVSS”, “high polyreactivity”.

Take “QVQLVESGGGLVQAGGSLRLSCAASGFTFSGYAMGWYRQAPGKERELVASISRRGGSTYYADSVKGRFTISRDNAKNTVYLQMNSLKPEDTAVYYCATLRGRLRFGYDYWGQGTQVTVSS”: the “polyreactivity (PSR sort gate)” value is reported as “high polyreactivity”.

Turning to “QVQLVESGGGLVQAGGSLRLSCAASGFTFSGYAMGWYRQAPGKERELVASITGSGSSTYYADSVKGRFTISRDNAKNNVYLQMNSLKPEDTAVYYCNAQFIGGWWAIYDYWGQGTQVTVSS”, the “polyreactivity (PSR sort gate)” value is on record as “high polyreactivity”. The same measure for “QVQLVESGGGLVQAGGSLRLSCAASGFTFSKYTMGWYRQAPGQERELVARITRRGGSTYYADSVKGRFTISRDNAKNTVYLQMNSLKPEDTAVYYFAADVYAYNGEYDYWGQGTQVTVSS”: “high polyreactivity”. In the case of “QVQLVESGGGLVQAGGSLRLSCAASGFTFSLYAMGWYRQAPGKERELVAAISRSGGSTYYADSVKGRFTISRDNAKNTVYLQMNSLNPEDTAVYYCAAREQTYTQRGKKLYYYWGQGTQVTVSS” it was “high polyreactivity”; in that of “QVQLVESGGGLVQAGGSLRLSCAASGFTFSLYAMGWYRQAPGKERELVAAISSRGGTTYYADSVKGRFTISRDNAKNTVYLQMNSLKPEDTAVYYCAARYVYTRSAFDYWGQGTQVTVSS”, “high polyreactivity”. In the case of “QVQLVESGGGLVQAGGSLRLSCAASGFTFSLYAMGWYRQAPGKERELVAAITWSGTRTYYADSVKGRFTISRDNAKNTVYLQMNSLKPEDTAVYYCATQGYGYRGWRNLYDYDYWGQGTQVTVSS” it was “high polyreactivity”. In the case of “QVQLVESGGGLVQAGGSLRLSCAASGFTFSLYDMGWYRQAPGKERELVAAISSDGSTNYADSVKGRFTISRDNAKNTVYLQMNSLKPEDTAVYYCAADETFLSYWLNYWGQGTQVTLSS”, the “polyreactivity (PSR sort gate)” value is “low polyreactivity”. In the case of “QVQLVESGGGLVQAGGSLRLSCAASGFTFSLYDMGWYRQAPGKERQLVADINGSGGSTYYADSVKGRFTISRDNAKNTVYLQMNSLKPEDTAVYYCAAGPPSRWWYIVDYGYWGQGTQVTVSS” it was “high polyreactivity”; in that of “QVQLVESGGGLVQAGGSLRLSCAASGFTFSPNAMGWYRQAPGKERELVAAIDWSGDRTYSADSVKGRFTISRDNAKNTVYLQMNSLKPEDTAVYYCNVVRRSPGDYSYFYWGQGTQVTVSS”, “low polyreactivity”. “QVQLVESGGGLVQAGGSLRLSCAASGFTFSPYAMGWYRQATGKERELVAAIRWTDGSTYYADSVKGRFTISRDNAKNTVYLQMNSLKPEDTAVYYCAAYWYHNIGGYGPGLNYWGEGTQVTVSS”: the “polyreactivity (PSR sort gate)” value is on record as “high polyreactivity”. In the case of “QVQLVESGGGLVQAGGSLRLSCAASGFTFSQYAAMGWYRQAPGKERELVAAINISGSTNYADSVKGRFTISRDNAKNTVYLQMNSLKPEDTAVYYCNADVAPGIFYGYDSWGQGTQVTVSS” it was “low polyreactivity”; in that of “QVQLVESGGGLVQAGGSLRLSCAASGFTFSQYAMGWYRQAPGKERELVAAINSRGGSTYYADSVKGRFTISRDNAKNTVYLQINSLKPEDTAVYYCNAVISGYPYEYDYWGQGTQVTVSS”, “high polyreactivity”. In the case of “QVQLVESGGGLVQAGGSLRLSCAASGFTFSQYAMGWYRQAPGKERELVAAITFSGDSTYYADSVKGRFTISRDNAKNTVYLQMNSLKPEDTAVYYCNADDWWGGYDYWGQGTQVTVSS”, the “polyreactivity (PSR sort gate)” value is recorded as “low polyreactivity”. The same measure for “QVQLVESGGGLVQAGGSLRLSCAASGFTFSRNAMGWYRQAPGKERELDAAITSSGGSTYYADSVKGRFTISRDNAKNTVYLQMNSLKPEDTAVYYCNVVPIWRKYLSQIYGYWGQGTQVTVSS”: “high polyreactivity”.

Consider “QVQLVESGGGLVQAGGSLRLSCAASGFTFSRNDMGWYRQAPGKERELLASITTSGGGTYYADSVKGRFTISRDNAKNTVYLQMNSLKPEDTAVYYCAKDWFPWAGYYDFGYWGQGTQVTVSS”, for which the “polyreactivity (PSR sort gate)” value is recorded as “low polyreactivity”. In the case of “QVQLVESGGGLVQAGGSLRLSCAASGFTFSRYAMGWYRQAPGKERELVAAITSGGSTYYADSVKGRFTISRDNAMNTVYLQMNSLKPEDTAVYYCAVGVAEFFGYGYWGQGTQVTVSS” it was “high polyreactivity”. In the case of “QVQLVESGGGLVQAGGSLRLSCAASGFTFSRYAMGWYRQAPGKERELVAVITWNGGRTYYADSVKGRFTISRDNAKNTVYLLMNSLKPEDTAVYYCKAYYFFLPYRYSTYDYWGQGTQVTVSS” it was “high polyreactivity”. The same measure for “QVQLVESGGGLVQAGGSLRLSCAASGFTFSRYTMGWYRQAPGKERELVAAITSSGGSTYYADSVKGRFTISRDNAKNTVYLQMNSLKPEDTAVYYCAARRRESDQRGYCGQGTQVTVSS”: “high polyreactivity”; for “QVQLVESGGGLVQAGGSLRLSCAASGFTFSSYAMGWYRQAPGKERELVAAISYSGGSTYYADSVKGRFTISRDNAKNTVYLQMNSLKPEDTAVYYCAAQRGSEYYWGQGTQVTVSS”: “high polyreactivity”. As to “QVQLVESGGGLVQAGGSLRLSCAASGFTFSSYAMGWYRQAPGKERELVAAITISGGRTYYSDSVKGRFTISRDNAKNTVYLQMNSLKPEDTAVYYCNTDYGRRYDYWGQGTQVTVSS”, the “polyreactivity (PSR sort gate)” value is listed as “high polyreactivity”.

For the sequence “QVQLVESGGGLVQAGGSLRLSCAASGFTFSTNAMGWYRPAPGKERELVAAISYGGVSTYYADSVKGRFTISRDNAKNTVYLQMNSLKPEDTAVYYCAAGRITTRLYGDPFDYWGQGTQVTVSS”, the “polyreactivity (PSR sort gate)” value is “low polyreactivity”. The same measure for “QVQLVESGGGLVQAGGSLRLSCAASGFTFSTNAMGWYRPAPGKEREVVAAITWRGGSTYYADSVKGRFTISRDNAKNTVYLQMNSLKPEDTAVYYCARRYRGSHVSYYKKFDYWGQGTQVTVSS”: “low polyreactivity”.

Source of the values: the nanobody polyreactivity screen of Harvey et al. (2022).
